In paper PMC3005623 (Journal of molecular biology, 2010):
Where two headings read alike, the source gives them in different places.

Assays:
Experiment in all cases: negative-stain electron microscopy
[1] = biological target: Cdc3–Cdc11–(His)6–Cdc12-Cdc10(Δ12–28) complex (Cdc11-Cdc12-Cdc3-Cdc10(Δ12–28) hetero-tetramer) (S. cerevisiae) (UniProt P32457)
[2] = biological target: Cdc3–Cdc11–(His)6–Cdc12-Cdc10(Δ12–28) complex (Cdc11-Cdc12-Cdc3-Cdc10(Δ12–28) hetero-tetramer) (S. cerevisiae) (UniProt P32457); remark: listed apart in the source
[3] = biological target: Cdc12(Δ318–407) (S. cerevisiae)
[4] = biological target: the molecule itself
[5] = biological target: the molecule itself; remark: listed apart in the source

Q: Which percent of particles that are heptamers [1] does the source give for “Cdc3–Cdc11–(His)6–Cdc12-Cdc10(Δ12–28) complex (Cdc11-Cdc12-Cdc3-Cdc10(Δ12–28) hetero-tetramer) (from UniProt P32457 1-520; P32458 1-415; P32468 1-407; P25342 1-322)” here?
A: Its percent of particles that are heptamers is 18.2%.

Q: And the percent of particles that are hexamers [1]?
A: The percent of particles that are hexamers was 10.8%.

Q: And the percent of particles that are octamers [1]?
A: Its percent of particles that are octamers is 21.8%.

Q: And the percent of particles that are pentamers [1]?
A: Its percent of particles that are pentamers is 8.03%.

Q: What about the percent of particles that are tetramers [1] of the same molecule?
A: Its percent of particles that are tetramers is 41.3%.

Q: What about the percent of particles that are tetramers [2] of the same molecule?
A: Its percent of particles that are tetramers is 88.3%.

Q: What about the percent of particles that are trimers [2] of the same molecule?
A: The percent of particles that are trimers was 11.7%.

B1: Cdc11 (natural protein, S. cerevisiae, UniProt P32458 1-415, looked up)
chain: MSGIIDASSALRKRKHLKRGITFTVMIVGQSGSGRSTFINTLCGQQVVDTSTTILLPTDTSTEIDLQLREETVELEDDEGVKIQLNIIDTPGFGDSLDNSPSFEIISDYIRHQYDEILLEESRVRRNPRFKDGRVHCCLYLINPTGHGLKEIDVEFIRQLGSLVNIIPVISKSDSLTRDELKLNKKLIMEDIDRWNLPIYNFPFDEDEISDEDYETNMYLRTLLPFAIIGSNEVYEMGGDVGTIRGRKYPWGILDVEDSSISDFVILRNALLISHLHDLKNYTHEILYERYRTEALSGESVAAESIRPNLTKLNGSSSSSTTTRRNTNPFKQSNNINNDVLNPASDMHGQSTGENNETYMTREEQIRLEEERLKAFEERVQQELLLKRQELLQREKELREIEARLEKEAKIKQEE
Q: How did the percent of particles that are heptamers [3] turn out when B1 was run?
A: The percent of particles that are heptamers was 31.5%.

Q: What about the percent of particles that are hexamers [3] of the same molecule?
A: The percent of particles that are hexamers was 18.5%.

Q: What about the percent of particles that are octamers [3] of the same molecule?
A: Its percent of particles that are octamers is 50%.

Q: Does B1 bind [4]?
A: Result: binds

B2: Cdc3(K90A R93A R94A)–Cdc11–(His)6–Cdc12-Cdc10 complex (complex, S. cerevisiae)
chain 1: MSLKEEQVSIKQDPEQEERQHDQFNDVQIKQESQDHDGVDSQYTNGTQNDDSERFEAAESDVKVEPGLGMGITSSQSEKGQVLPDQPEIAFIAAQINGYVGFANLPKQWHRRSIKNGFSFNLLCVGPDGIGKTTLMKTLFNNDDIEANLVKDYEEELANDQEEEEGQGEGHENQSQEQRHKVKIKSYESVIEENGVKLNLNVIDTEGFGDFLNNDQKSWDPIIKEIDSRFDQYLDAENKINRHSINDKRIHACLYFIEPTGHYLKPLDLKFMQSVYEKCNLIPVIAKSDILTDEEILSFKKTIMNQLIQSNIELFKPPIYSNDDAENSHLSERLFSSLPYAVIGSNDIVENYSGNQVRGRSYPWGVIEVDNDNHSDFNLLKNLLIKQFMEELKERTSKILYENYRSSKLAKLGIKQDNSVFKEFDPISKQQEEKTLHEAKLAKLEIEMKTVFQQKVSEKEKKLQKSETELFARHKEMKEKLTKQLKALEDKKKQLELSINSASPNVNHSPVPTKKKGFLR
chain 2: MSGIIDASSALRKRKHLKRGITFTVMIVGQSGSGRSTFINTLCGQQVVDTSTTILLPTDTSTEIDLQLREETVELEDDEGVKIQLNIIDTPGFGDSLDNSPSFEIISDYIRHQYDEILLEESRVRRNPRFKDGRVHCCLYLINPTGHGLKEIDVEFIRQLGSLVNIIPVISKSDSLTRDELKLNKKLIMEDIDRWNLPIYNFPFDEDEISDEDYETNMYLRTLLPFAIIGSNEVYEMGGDVGTIRGRKYPWGILDVEDSSISDFVILRNALLISHLHDLKNYTHEILYERYRTEALSGESVAAESIRPNLTKLNGSSSSSTTTRRNTNPFKQSNNINNDVLNPASDMHGQSTGENNETYMTREEQIRLEEERLKAFEERVQQELLLKRQELLQREKELREIEARLEKEAKIKQEE
chain 3: MSAATATAAPVPPPVGISNLPNQRYKIVNEEGGTFTVMLCGESGLGKTTFINTLFQTVLKRADGQQHRQEPIRKTVEIDITRALLEEKHFELRVNVIDTPGFGDNVNNNKAWQPLVDFIDDQHDSYMRQEQQPYRTKKFDLRVHAVLYFIRPTGHGLKPIDIETMKRLSTRANLIPVIAKADTLTAQELQQFKSRIRQVIEAQEIRIFTPPLDADSKEDAKSGSNPDSAAVEHARQLIEAMPFAIVGSEKKFDNGQGTQVVARKYPWGLVEIENDSHCDFRKLRALLLRTYLLDLISTTQEMHYETYRRLRLEGHENTGEGNEDFTLPAIAPARKLSHNPRYKEEENALKKYFTDQVKAEEQRFRQWEQNIVNERIRLNGDLEEIQGKVKKLEEQVKSLQVKKSHLK
chain 4: MDPLSSVQPASYVGFDTITNQIEHRLLKKGFQFNIMVVGQSGLGKSTLINTLFASHLIDSATGDDISALPVTKTTEMKISTHTLVEDRVRLNINVIDTPGFGDFIDNSKAWEPIVKYIKEQHSQYLRKELTAQRERFITDTRVHAILYFLQPNGKELSRLDVEALKRLTEIANVIPVIGKSDTLTLDERTEFRELIQNEFEKYNFKIYPYDSEELTDEELELNRSVRSIIPFAVVGSENEIEINGETFRGRKTRWSAINVEDINQCDFVYLREFLIRTHLQDLIETTSYIHYEGFRARQLIALKENANSRSSAHMSSNAIQR
Q: Does B2 bind [4]?
A: Result: binds

B3: Cdc3(R111A R112A K115A)–Cdc11–(His)6–Cdc12-Cdc10 complex (complex, S. cerevisiae)
chain 1: MSLKEEQVSIKQDPEQEERQHDQFNDVQIKQESQDHDGVDSQYTNGTQNDDSERFEAAESDVKVEPGLGMGITSSQSEKGQVLPDQPEIKFIRRQINGYVGFANLPKQWHAASIANGFSFNLLCVGPDGIGKTTLMKTLFNNDDIEANLVKDYEEELANDQEEEEGQGEGHENQSQEQRHKVKIKSYESVIEENGVKLNLNVIDTEGFGDFLNNDQKSWDPIIKEIDSRFDQYLDAENKINRHSINDKRIHACLYFIEPTGHYLKPLDLKFMQSVYEKCNLIPVIAKSDILTDEEILSFKKTIMNQLIQSNIELFKPPIYSNDDAENSHLSERLFSSLPYAVIGSNDIVENYSGNQVRGRSYPWGVIEVDNDNHSDFNLLKNLLIKQFMEELKERTSKILYENYRSSKLAKLGIKQDNSVFKEFDPISKQQEEKTLHEAKLAKLEIEMKTVFQQKVSEKEKKLQKSETELFARHKEMKEKLTKQLKALEDKKKQLELSINSASPNVNHSPVPTKKKGFLR
chain 2: MSGIIDASSALRKRKHLKRGITFTVMIVGQSGSGRSTFINTLCGQQVVDTSTTILLPTDTSTEIDLQLREETVELEDDEGVKIQLNIIDTPGFGDSLDNSPSFEIISDYIRHQYDEILLEESRVRRNPRFKDGRVHCCLYLINPTGHGLKEIDVEFIRQLGSLVNIIPVISKSDSLTRDELKLNKKLIMEDIDRWNLPIYNFPFDEDEISDEDYETNMYLRTLLPFAIIGSNEVYEMGGDVGTIRGRKYPWGILDVEDSSISDFVILRNALLISHLHDLKNYTHEILYERYRTEALSGESVAAESIRPNLTKLNGSSSSSTTTRRNTNPFKQSNNINNDVLNPASDMHGQSTGENNETYMTREEQIRLEEERLKAFEERVQQELLLKRQELLQREKELREIEARLEKEAKIKQEE
chain 3: MSAATATAAPVPPPVGISNLPNQRYKIVNEEGGTFTVMLCGESGLGKTTFINTLFQTVLKRADGQQHRQEPIRKTVEIDITRALLEEKHFELRVNVIDTPGFGDNVNNNKAWQPLVDFIDDQHDSYMRQEQQPYRTKKFDLRVHAVLYFIRPTGHGLKPIDIETMKRLSTRANLIPVIAKADTLTAQELQQFKSRIRQVIEAQEIRIFTPPLDADSKEDAKSGSNPDSAAVEHARQLIEAMPFAIVGSEKKFDNGQGTQVVARKYPWGLVEIENDSHCDFRKLRALLLRTYLLDLISTTQEMHYETYRRLRLEGHENTGEGNEDFTLPAIAPARKLSHNPRYKEEENALKKYFTDQVKAEEQRFRQWEQNIVNERIRLNGDLEEIQGKVKKLEEQVKSLQVKKSHLK
chain 4: MDPLSSVQPASYVGFDTITNQIEHRLLKKGFQFNIMVVGQSGLGKSTLINTLFASHLIDSATGDDISALPVTKTTEMKISTHTLVEDRVRLNINVIDTPGFGDFIDNSKAWEPIVKYIKEQHSQYLRKELTAQRERFITDTRVHAILYFLQPNGKELSRLDVEALKRLTEIANVIPVIGKSDTLTLDERTEFRELIQNEFEKYNFKIYPYDSEELTDEELELNRSVRSIIPFAVVGSENEIEINGETFRGRKTRWSAINVEDINQCDFVYLREFLIRTHLQDLIETTSYIHYEGFRARQLIALKENANSRSSAHMSSNAIQR
Q: Does B3 bind [4]?
A: Result: binds

B4: Cdc10 (natural protein, S. cerevisiae, UniProt P25342 1-322, looked up)
chain: MDPLSSVQPASYVGFDTITNQIEHRLLKKGFQFNIMVVGQSGLGKSTLINTLFASHLIDSATGDDISALPVTKTTEMKISTHTLVEDRVRLNINVIDTPGFGDFIDNSKAWEPIVKYIKEQHSQYLRKELTAQRERFITDTRVHAILYFLQPNGKELSRLDVEALKRLTEIANVIPVIGKSDTLTLDERTEFRELIQNEFEKYNFKIYPYDSEELTDEELELNRSVRSIIPFAVVGSENEIEINGETFRGRKTRWSAINVEDINQCDFVYLREFLIRTHLQDLIETTSYIHYEGFRARQLIALKENANSRSSAHMSSNAIQR
Q: Does B4 bind [5]?
A: Result: binds

B5: Cdc10(H24A R25A K28A K29A) (natural protein, S. cerevisiae, UniProt P25342 1-322, looked up)
chain: MDPLSSVQPASYVGFDTITNQIEAALLAAGFQFNIMVVGQSGLGKSTLINTLFASHLIDSATGDDISALPVTKTTEMKISTHTLVEDRVRLNINVIDTPGFGDFIDNSKAWEPIVKYIKEQHSQYLRKELTAQRERFITDTRVHAILYFLQPNGKELSRLDVEALKRLTEIANVIPVIGKSDTLTLDERTEFRELIQNEFEKYNFKIYPYDSEELTDEELELNRSVRSIIPFAVVGSENEIEINGETFRGRKTRWSAINVEDINQCDFVYLREFLIRTHLQDLIETTSYIHYEGFRARQLIALKENANSRSSAHMSSNAIQR
Q: Does B5 bind [5]?
A: Result: binds

B6: Cdc10(I22E) (natural protein, S. cerevisiae, UniProt P25342 1-322, looked up)
chain: MDPLSSVQPASYVGFDTITNQEEHRLLKKGFQFNIMVVGQSGLGKSTLINTLFASHLIDSATGDDISALPVTKTTEMKISTHTLVEDRVRLNINVIDTPGFGDFIDNSKAWEPIVKYIKEQHSQYLRKELTAQRERFITDTRVHAILYFLQPNGKELSRLDVEALKRLTEIANVIPVIGKSDTLTLDERTEFRELIQNEFEKYNFKIYPYDSEELTDEELELNRSVRSIIPFAVVGSENEIEINGETFRGRKTRWSAINVEDINQCDFVYLREFLIRTHLQDLIETTSYIHYEGFRARQLIALKENANSRSSAHMSSNAIQR
Q: Does B6 bind [5]?
A: Result: binds
